Assay [1] deals with 人脑利钠肽(BNP) (human) (UniProt P16860). Nature of the assay: indirect ELISA, BNP coated at 2 μg/ml, purified antibody diluted 10^4-fold; mean value.
Assay [2] shares this target. Nature of the assay: indirect ELISA, serial two-fold dilution of the antibody; coated antigen taken as BNP.
The target is the same in assay [3]. Nature of the assay: sandwich ELISA kit, 5G8 coated at 5 μg/ml, HRP-5D11 detection; synthetic BNP standard 3.90625 pg/ml.
For assay [4] the target is unchanged. Briefly: sandwich ELISA kit, 5G8 coated at 5 μg/ml, HRP-5D11 detection; synthetic BNP standard 7.8125 pg/ml.
For assay [5] the target is unchanged. Nature of the assay: sandwich ELISA kit, 5G8 coated at 5 μg/ml, HRP-5D11 detection; synthetic BNP standard 125 pg/ml.
For assay [6] the target is unchanged. Briefly: sandwich ELISA kit, 5G8 coated at 5 μg/ml, HRP-5D11 detection; synthetic BNP standard 250 pg/ml.
Assay [7] shares this target. Nature of the assay: sandwich ELISA, 5G8 coated, HRP-5D11 detection; plasma sample with BNP 108 pg/ml.
The target is the same in assay [8]. Nature of the assay: sandwich ELISA kit, 5G8 coated at 5 μg/ml, HRP-5D11 detection; synthetic BNP standard 31.25 pg/ml.
For assay [9] the target is unchanged. Briefly: sandwich ELISA kit, 5G8 coated at 5 μg/ml, HRP-5D11 detection; synthetic BNP standard 15.625 pg/ml.
Assay [10] has the same target. Briefly: sandwich ELISA, 5G8 coated, HRP-5D11 detection; plasma sample with BNP 3287.3 pg/ml.
The target is the same in assay [11]. Nature of the assay: sandwich ELISA, 5G8 coated, HRP-5D11 detection; plasma sample with BNP 1125.7 pg/ml.
Assay [12] has the same target. Nature of the assay: sandwich ELISA, 5G8 coated, HRP-5D11 detection; plasma sample with BNP 425.6 pg/ml.
Assay [13] shares this target. Briefly: sandwich ELISA, 5G8 coated, HRP-5D11 detection; plasma sample with BNP 2046.3 pg/ml.
Assay [14] shares this target. Nature of the assay: sandwich ELISA, 5G8 coated, HRP-5D11 detection; plasma sample with BNP 287 pg/ml.
For assay [15] the target is unchanged. Briefly: sandwich ELISA, 5G8 coated, HRP-5D11 detection; plasma sample with BNP 39.7 pg/ml.
For assay [16] the target is unchanged. Nature of the assay: sandwich ELISA kit, 5G8 coated at 5 μg/ml, HRP-5D11 detection; 0 pg/ml BNP (blank).
Assay [17] shares this target. Briefly: sandwich ELISA kit, 5G8 coated at 5 μg/ml, HRP-5D11 detection; synthetic BNP standard 62.5 pg/ml.
For assay [18] the target is unchanged. Nature of the assay: sandwich ELISA, 5G8 coated, HRP-5D11 detection; 0 pg/ml BNP (blank).

Sequence of UniProt P16860 (P16860 103-134): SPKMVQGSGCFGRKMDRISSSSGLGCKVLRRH

B1: 兔单克隆抗体OTIR5D11 (antibody, V domains shown)
VH: QSVEESGGRLVTPGTPLTLTCTVSGFSLSSYAMNWVRQAPGKGLEWIGYIDSSGTIYYASWAKGRFTISKTSTTVDLKITSPTTEDTATYFCARGMNWGQGTLVTVS
VL: AAVLTQTPSPVSAAVGGTVTISCQSSQSVYDNNALAWYQQKPGQPPKRLIYKASTLDSGVPSRFSGSGSGTQFTLTISGVQCDDAATYYCLGEYYDDAEFGGGTEVVVK
The molecule B1 displayed an OD450 in assay [1] of 2.85 OD450. Also, the 效价 (ELISA titer) in assay [2] was 1.3e+07.

B2: 兔单克隆抗体OTIR5G8 (antibody, V domains shown)
VH: QSLEESGGRLVTPGTPLTLTCTASGFSLISYDMSWVRQAPGKGLEWIGFLGSGSSAYYASWAKGRFTISRTSTTVDLKITSPTTEDTATYFCARGTGWGQGTLVTVSS
VL: AQVLTQTPSSVSAAVGGTVTINCQASQSVYKNNWLSWFQQKPGQPLKRLTYRASTLDSGVPSRFSGSGSGTEFTLTISDVQCDDAATYYCLGSYDCSSADFGGGTEMVVK
B2: the OD450nm in [3] was determined as 0.024 OD450nm; in assay [4], 0.033 OD450nm; in assay [5], 1.11 OD450nm; in [6], 2 OD450nm; in assay [7], 0.951 OD450nm; in assay [8], 0.224 OD450nm. Besides, the OD450nm in [9] is 0.086 OD450nm; in [10], 3.6 OD450nm; in assay [11] it was 2.8 OD450nm; in assay [12], 1.74 OD450nm; in assay [13], 3.48 OD450nm; in assay [14], 1.37 OD450nm. Further, the OD450nm was 0.273 OD450nm in [15], 0.01 OD450nm in assay [16], 0.529 OD450nm in assay [17] and 0.026 OD450nm in assay [18]. Also, in assay [1], the OD450 came out at 2.85 OD450. In assay [2], this molecule gave a 效价 (ELISA titer) of 6.6e+06.

For the origin of these results see patent CN113956355A.
